This note sets out measurements from patent publication EP0651783B1, “ALKALINE PHOSPHATASE ENZYME HAVING IMPROVED SPECIFIC ACTIVITY FOR USE IN INDICATOR REAGENTS” (ABBOTT LABORATORIES, priority 1992, dated 1994).

This series concerns O=[N+]([O-])c1ccc(OP(=O)(O)O)cc1. Briefly: Alkaline phosphatase kinetic constants (substrate hydrolysis). The series is classed as biochemical, Escherichia coli. As to conditions: other: Table 1; substrate not named, e.g. p-nitrophenyl phosphate.

Experimental: The analyses for specific activity and temperature stability were performed on highly purified protein material. In brief, the purification process involved the release of the periplasmic protein by the formation of spheroplasts, ammonium sulphate precipitation and chromatofocusing chromatography. […] Temperature stability was measured by monitoring the decay of enzyme activity at different temperatures.

On to “E. coli alkaline phosphatase variant pMA116, Lys^328 > Arg / Val^99 > Ala (Escherichia coli K-12; K350R/V121A)”, for which the Michaelis constant (Km) is 74 µM.

As a reminder, the Km is the concentration of substrate that gives half-maximal velocity.
